Results: patent US20030148958A1 (PROCTER AND GAMBLE, published 2003)
Ends that are not written are not given here.

T1: corticotropin releasing factor 2 receptor
T1 sequence (Q13324 whole entry, species assumed, looked up): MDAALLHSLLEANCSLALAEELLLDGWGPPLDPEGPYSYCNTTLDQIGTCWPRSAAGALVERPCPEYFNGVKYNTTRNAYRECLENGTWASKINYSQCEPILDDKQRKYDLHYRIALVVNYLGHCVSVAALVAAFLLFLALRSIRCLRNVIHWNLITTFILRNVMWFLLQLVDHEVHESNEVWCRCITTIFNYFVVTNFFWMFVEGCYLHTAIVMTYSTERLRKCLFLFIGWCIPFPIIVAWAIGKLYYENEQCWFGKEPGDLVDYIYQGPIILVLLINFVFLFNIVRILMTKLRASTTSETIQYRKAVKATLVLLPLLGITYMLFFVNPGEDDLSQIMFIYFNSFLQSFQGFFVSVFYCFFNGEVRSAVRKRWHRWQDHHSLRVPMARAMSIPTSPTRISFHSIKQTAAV

B1: SEQ ID NO 150 (peptide)
peptide: ZGPPISIDLPIQLLRKMIEIEKQEKEKQQATTNARILARV
modifications: C-terminal amide
B2: SEQ ID NO 171 (peptide)
peptide: ZGPPISIDVPFQLLRILIEIEKQEKEKQQATTNARILARV
modifications: C-terminal amide
B3: SEQ ID NO 172 (peptide)
peptide: ZGPPISIDVPFQLLRKMIEIEKQEKEKQQATTNARILARV
modifications: C-terminal amide
B4: SEQ ID NO 170 (peptide)
peptide: ZGPPISIDVPTYLLRKMIEIEKQEKEKQQATTNARILARV
modifications: C-terminal amide
B5: SEQ ID NO 151 (peptide)
peptide: ZGPPISIDLPTYLLRKMIEIEKQEKEKQQATTNARILARV
modifications: C-terminal amide
B6: SEQ ID NO 17 (peptide)
peptide: ZGPPISIDLPFQLLRKMIEIEKQEKEKQQATTNRLLLATV
modifications: C-terminal amide
B7: SEQ ID NO 169 (peptide)
peptide: ZGPPISIDVPTYLLRILIEIEKQEKEKQQATTNARILARV
modifications: C-terminal amide
B8: SEQ ID NO 16 (peptide)
peptide: ZGPPISIDLPFQLLRKMIEIEKQEKEKQQATTNRLLLDTV
modifications: C-terminal amide
B9: SEQ ID NO 167 (peptide)
peptide: IVLSLDVPIGLLQILLEQEKQEKEKQQATTNARILARV-NH2
B10: SEQ ID NO 163 (peptide)
peptide: IVLSLDVPIGLLQILLEQARARAAREQATSNRKLMEII-NH2
B11: SEQ ID NO 156 (peptide)
peptide: ZGPPISIDLSLELLRKMIEQARARAAREQATTNARILARV
modifications: C-terminal amide
B12: SEQ ID NO 159 (peptide)
peptide: IVLSLDVPIGLLQILLEQTKADQLAQQAHSNRKLLDIA-NH2
B13: SEQ ID NO 160 (peptide)
peptide: IVLSLDVPIGLLQTLLELARTQSQRERAEQNRIIFDSV-NH2
B14: SEQ ID NO 152 (peptide)
peptide: SQEIVLSLDVPIGLLREVLEMTKADQLAQQAHSNRKLLDIA-NH2
B15: SEQ ID NO 154 (peptide)
peptide: IVLSLDVPIGLLQILIEIEKQEKEKQQAANNRLLLDTI-NH2
B16: SEQ ID NO 174 (peptide)
peptide: DNPSLSIDLPLLLLRTLLELARTQSQRERAEQNAIIFASV-NH2
B17: SEQ ID NO 155 (peptide)
peptide: IVLSLDVPIGLLQILLEMTKADQLAQQAHSNRKLLDIA-NH2
B18: SEQ ID NO 157 (peptide)
peptide: SQEPPISLDLTFHLLREVLEQARARAAREQATTNARILARV-NH2
B19: SEQ ID NO 161 (peptide)
peptide: SEEPPISLDLTFHLLREVLEMARAEQLAQQAHTNARILARV-NH2
B20: SEQ ID NO 165 (peptide)
peptide: IVLSLDVPIGLLQEVLEMARAEQLAQQAHSNRKLMEII-NH2
B21: SEQ ID NO 166 (peptide)
peptide: IVLSLDVPIGLLQILIEIEKQEKEKQQAANNARILARV-NH2
B22: SEQ ID NO 176 (peptide)
peptide: DNPSLSIDLPLQLLRTLLELARTQSQRERAEQNAIIFASV-NH2
B23: SEQ ID NO 173 (peptide)
peptide: DNPSLSIDLPTYLLRTLLELARTQSQRERAEQNAIIFASV-NH2
B24: SEQ ID NO 158 (peptide)
peptide: IVLSLDVPIGLLQILLEIEKQEKEKQQAANNRLLLDTI-NH2
B25: SEQ ID NO 175 (peptide)
peptide: DNPSLSIDLPLILLRTLLELARTQSQRERAEQNAIIFASV-NH2
B26: SEQ ID NO 153 (peptide)
peptide: ZGIVLSLDVPIGLLRKMIEIEKQEKEKQQAANNRLLLDTI
modifications: C-terminal amide
B27: SEQ ID NO 168 (peptide)
peptide: IVLSLDVPIGLLQILIEIEKQEKEKQQAATTNARILARV-NH2
B28: SEQ ID NO 162 (peptide)
peptide: SEEPPISLDVPIGLLQEVLEMARAEQLAQQAHSNRKLMEII-NH2
B29: SEQ ID NO 164 (peptide)
peptide: IVLSLDVPIGLLQILLEMARAEQLAQQAHSNRKLMEII-NH2
B30: SEQ ID NO 177 (peptide)
peptide: DNPSLSIDLPLYLLRTLLELARTQSQRERAEQNAIIFASV-NH2

Legend:
[1] = target: T1, corticotropin releasing factor 2 …; assay: cell-based or functional assay
[2] = target: corticotropin releasing factor 1 receptor; assay: cell-based or functional assay
Wherever CRF1R Emax is given: reference of the scale not given here.
Wherever CRF2R Emax is given: reference of the scale not given here.

Row | Binder | CRF2R EC50 [1] | CRF2R Emax [1] | CRF1R EC50 [2] | CRF1R Emax [2]
1 | B1 | 34.6 nM | 70.5% | 1000 nM | 5.7%
2 | B2 | 17.6 nM | 100% | 206 nM | 99%
3 | B3 | 13.5 nM | 100% | 1000 nM | 68%
4 | B4 | 75 nM | 83% | 1000 nM | 9%
5 | B5 | 36.8 nM | 96% | 1000 nM | 19.9%
6 | B6 | 10.2 nM | 96% | 260 nM | 98%
7 | B7 | 17.8 nM | 93% | 978 nM | 26%
8 | B8 | 7.88 nM | 86% | 136 nM | 98%
9 | B9 | 13 nM | 100% | 1000 nM | 15%
10 | B10 | 4.49 nM | 96% | > 100 nM | 13%
11 | B11 | 9.29 nM | 79% | > 100 nM | 6%
12 | B12 | 90.8 nM | 62% | > 100 nM | 9%
13 | B13 | 9.15 nM | 87% | > 100 nM | 10%
14 | B14 | > 100 nM | 19% | > 100 nM | 4%
15 | B15 | 10.3 nM | 100% | > 100 nM | 7%
16 | B16 | 4.42 nM | 97.2% | 1000 nM | 29.1%
17 | B17 | 20.6 nM | 94% | 40.6 nM | 16%
18 | B18 | 42 nM | 60.6% | 100 nM | 91%
19 | B19 | > 100 nM | 88% | > 100 nM | 77%
20 | B20 | > 100 nM | 75% | > 100 nM | 19%
21 | B21 | 3.7 nM | 99% | 438 nM | 95%
22 | B22 | 12.6 nM | 90.2% | 1000 nM | 26.9%
23 | B23 | 100 nM | 65.2% | 1000 nM | 6.05%
24 | B24 | 6.37 nM | 89% | > 100 nM | 15%
25 | B25 | 5.42 nM | 92.2% | 1000 nM | 34.8%
26 | B26 | 9.28 nM | 97% | > 100 nM | 7%
27 | B27 | 4.9 nM | 75% | 1000 nM | 52%
28 | B28 | > 100 nM | 7% | > 100 nM | 11%
29 | B29 | 2.24 nM | 92% | > 100 nM | 26%
30 | B30 | 5.63 nM | 97.7% | 613 nM | 69.2%
